Experimental data: paper PMC3157250 (2011)

B1: HCMV protease (HCMV Pr) (protein)
chain: MTMDEQQSQAVAPVYVGGFLARYDQSPDEAELLLPRDVVEHWLHAQGQGQPSLSVALPLNINHDDTAVVGHVAAMQSVRDGLFCLGCVTSPRFLEIVRRASEKSELVSRGPVSPLQPDKVVEFLSGSYAGLSLSSRRCDDVEAATSLSGSETTPFKHVALCSVGRRRGTLAVYGRDPEWVTQRFPDLTAADRDGLRAQWQRCGSTAVDASGDPFRSDSYGLLGNSVDALYIRERLPKLRYDKQLVGVTERESYVKA

What was measured:
[1] = target: KSHV protease (Kaposi's sarcoma-associated herpesvirus) (UniProt Q2HRB6); conditions: cited from earlier work
[2] = target: the molecule itself; experiment: fluorescence-based substrate cleavage kinetics assay

Molecule | Kd [1] [µM] | Kd [2] [µM]
KSHV protease (from UniProt Q2HRB6) | 1.7 | –
B1 | – | 1.3
